Source: US20050153310A1 (PROMEGA, published 2005)

Molecular target: FKBP (FK506 binding protein) (UniProt P62942 2-108)
Assay: cell-based or functional assay

FKBP (FK506 binding protein), sequence (P62942 2-108): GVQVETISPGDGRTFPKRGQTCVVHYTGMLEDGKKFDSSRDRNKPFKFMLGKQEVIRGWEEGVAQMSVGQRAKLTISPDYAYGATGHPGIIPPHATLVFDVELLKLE

B1: FRB (rapamycin binding protein) (other)
chain: ILWHEMWHEGLEEASRLYFGERNVKGMFEVLEPLHAMMERGPQTLKETSFNQAYGRDLMEAQEWCRKYMKSGNVKDLTQAWDLYYHVFRRISK
In the case of B1, the “fold decrease in relative luminescence of the in vitro translated double fusion FRB-luc2-FKBP with 0.2 uM rapamycin, compared to the control reactions” value is reported as 20 fold, the “luminescent signal of D293 cells transfected with FRB-Luc2-FKBP under the CMV promoter, with rapamycin” value is reported as no more than 2 fold and the “luminescent signal of D293 cells transfected with FRB-Luc2-FKBP under the TK promoter, with rapamycin” value is reported as no more than 5 fold.
